What is called Kd is the equilibrium constant for the complex coming apart. Read a high Kd as weaker binding. What is called koff is the first-order rate constant of dissociation. The low end stands for a long-lived complex, the high end for a short-lived complex. Usually kon stands for the second-order rate constant of association. Read a high kon as fast association. Usually IC50 stands for the concentration that gives 50% inhibition.

We go through twelve molecules from patent US20240400670A1 (JIANGSU HENGRUI PHARMACEUTICALS, published 2024).

Assay [1] concerns the target T1, human IL-23 (Sino Biological, CT048-H08H) (human, UniProt Q9NPF7 20-189; P29460 23-328).
T1 sequence (looked up) 1: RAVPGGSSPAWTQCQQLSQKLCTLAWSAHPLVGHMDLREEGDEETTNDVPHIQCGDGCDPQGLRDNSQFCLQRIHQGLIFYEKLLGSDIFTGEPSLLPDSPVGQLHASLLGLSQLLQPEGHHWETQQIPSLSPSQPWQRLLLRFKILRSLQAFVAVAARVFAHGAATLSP
T1 sequence (looked up) 2: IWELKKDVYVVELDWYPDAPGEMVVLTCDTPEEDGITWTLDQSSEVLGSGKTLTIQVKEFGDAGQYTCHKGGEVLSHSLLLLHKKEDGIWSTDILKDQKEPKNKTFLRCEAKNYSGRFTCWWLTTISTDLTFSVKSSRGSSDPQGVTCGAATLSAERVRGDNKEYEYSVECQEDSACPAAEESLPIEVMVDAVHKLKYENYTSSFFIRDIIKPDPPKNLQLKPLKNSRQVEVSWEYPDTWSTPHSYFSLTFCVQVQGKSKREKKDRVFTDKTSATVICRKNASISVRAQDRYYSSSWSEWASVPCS
The assay can be described thus: cell-based or functional assay.

Assay [2] deals with T1, human IL-23 (Sino Biological, …). The assay can be described thus: SPR (Biacore), Protein A capture of sample, 1:1 model. How it is done: A certain amount of test sample was subjected to affinity capture by a biosensor chip Protein A (GE, 29127556), and then antigens at a series of concentration gradients were allowed to flow on the surface of the chip. The reaction signals were detected in real time by using Biacore (GE, 8 K) to obtain association and dissociation curves. After the dissociation was completed for each cycle, the biochip was washed and regenerated with a 10 mM glycine-hydrochloric acid solution at pH 1.5 (GE, BR-1003-54). Fitting was performed based on the experimental data using BlAevaluation version 4.1 software with a 1:1 model, and affinity values were obtained.

The target is the same in assay [3]. The assay is described as follows: competition ELISA, blocks IL-23/IL-23R; IL-23R coated, biotin-IL-23 + sample gradient. The procedure: The specific procedures are as follows:
The receptor protein was diluted to 2 μg/mL with a PBS (BasalMedia, B320) buffer at pH 7.4 and added to a 96-well microplate (Corning, 3590) at 100 μL/well. The plate was incubated at 4° C. overnight. After the liquid was discarded, 1 % Casein blocking solution (Thermo, 37528) was added at 200 μL/well for blocking, and the plate was incubated at 37° C. for 2 h. After the blocking was complete, the blocking solution was discarded, and the plate was washed 3 times with a PBST buffer (pH 7.4 PBS containing 0.1 % tween-20) for later use. After the biotin-labeled ligand protein at a fixed concentration was mixed with an antibody or fusion protein diluted in a gradient, the mixture was pre-incubated at 37° C. for 30 min and then added to the blocked microplate. The plate was incubated at 37° C. for 1.5 h. After the incubation was complete, the plate was washed 3 times with PBST. Streptavidin-HRP (Invitrogen, 434323, diluted at 1:4000) was added at 100 μL/well, and the plate was incubated at 37° C. for 1 h. The supernatant was removed. After the plate was washed 3 times with PBST, TMB chromogenic substrate (KPL, 5120-0077) was added at 100 μL/well, and the plate was incubated at room temperature for 10⁻¹⁵ min. 1 M H₂SO₄ was added at 50 μL/well to terminate the reaction. The absorbance values at 450 nm were taken using a microplate reader. Curves for the inhibition of binding of the ligands to the receptors were fitted using software, and the IC₅₀ values were calculated.
In general terms: An ELISA detects its analyte on a solid surface through an enzyme-linked reagent.

B1: Hu38-10 (antibody, human IgG1, kappa, L234A L235A, V domains shown)
VH: EFQLVQSGAEVKKPGASVKVSCKASGYSFTDHNMNWVRQAPGQRLEWMGVINPNYGTTTYNQKFKGRVTITVDQSASTAYMELSSLRSEDTAVYYCARRGFAYWGQGTLVTVSS
VL: DIVMTQTPLSLPVTPGEPASISCRSSKSLLYKDGKTYLNWFLQKPGQSPQLLIYLMSTRASGVPDRFSGSGSGTDLTLKISRVEAEDVGVYYCQQIAEYPFTFGSGTKLEIKR
notes: humanized mAb38, IgG1/kappa
As for B1, the “Activity in inhibiting proliferation of BaF3-IL-23R cells (IC50, nM)” value (“Activity in inhibiting proliferation” for short) in assay [1] was 0.116 nM. In assay [2], this molecule registered a Kd of 0.197 nM, a koff of 7.07e-05 s⁻¹ and an on-rate constant (kon) of 358000 M⁻¹ s⁻¹.

B2: Hu38-15 (antibody, human IgG1, kappa, L234A L235A, V domains shown)
VH: EFQLVQSGAEVKKPGASVKVSCKASGYSFTDHNMNWVRQAPGQSLEWMGVINPNYGTTTYNQKFKGRVTITVDQSASTAYMELSSLRSEDTAVYYCARRGFAYWGQGTLVTVSS
VL: DIVITQTPLSLPVTPGEPASISCRSSKSLLYKDGKTYLNWFLQRPGQSPQLLIYLMSTRASGVPDRFSGSGSGTDLTLKISRVEAEDVGVYYCQQIAEYPFTFGSGTKLEIKR
notes: humanized mAb38, IgG1/kappa
For B2, the “Activity in inhibiting proliferation” value in assay [1] was 0.149 nM. In assay [2], this molecule had a Kd of 0.168 nM, a koff of 8.3e-05 s⁻¹ and a kon of 494000 M⁻¹ s⁻¹.

B3: Hu38-7 (antibody, human IgG1, kappa, L234A L235A, V domains shown)
VH: EVQLVQSGAEVKKPGASVKVSCKASGYSFTDHNMNWVRQAPGQRLEWMGVINPNYGTTTYNQKFKGRVTITVDTSASTAYMELSSLRSEDTAVYYCARRGFAYWGQGTLVTVSS
VL: DIVITQTPLSLPVTPGEPASISCRSSKSLLYKDGKTYLNWFLQRPGQSPQLLIYLMSTRASGVPDRFSGSGSGTDLTLKISRVEAEDVGVYYCQQIAEYPFTFGSGTKLEIKR
notes: humanized mAb38, IgG1/kappa
As for B3, the “Activity in inhibiting proliferation” value in assay [1] came to 0.179 nM. Besides, in assay [2], the Kd is 0.152 nM, the koff came to 7.41e-05 s⁻¹ and the kon was found to be 486000 M⁻¹ s⁻¹.

B4: Hu38-16 (antibody, human IgG1, kappa, L234A L235A, V domains shown)
VH: EFQLVQSGAEVKKPGASVKVSCKASGYSFTDHNMNWVRQAPGQSLEWMGVINPNYGTTTYNQKFKGRVTITVDQSASTAYMELSSLRSEDTAVYYCARRGFAYWGQGTLVTVSS
VL: DIVMTQTPLSLPVTPGEPASISCRSSKSLLYKDGKTYLNWFLQKPGQSPQLLIYLMQTRASGVPDRFSGSGSGTDLTLKISRVEAEDVGVYYCQQIAEYPFTFGSGTKLEIKR
notes: humanized mAb38, IgG1/kappa
As to B4, the “Activity in inhibiting proliferation” value in assay [1] is 0.146 nM. In assay [2], this molecule showed a Kd of 0.161 nM, a koff of 5.49e-05 s⁻¹ and an association rate constant (kon) of 341000 M⁻¹ s⁻¹.

B5: Hu38-12 (antibody, human IgG1, kappa, L234A L235A, V domains shown)
VH: EFQLVQSGAEVKKPGASVKVSCKASGYSFTDHNMNWVRQAPGQRLEWMGVINPNYGTTTYNQKFKGRVTITVDQSASTAYMELSSLRSEDTAVYYCARRGFAYWGQGTLVTVSS
VL: DIVMTQTPLSLPVTPGEPASISCRSSKSLLYKDGKTYLNWFLQKPGQSPQLLIYLMQTRASGVPDRFSGSGSGTDLTLKISRVEAEDVGVYYCQQIAEYPFTFGSGTKLEIKR
notes: humanized mAb38, IgG1/kappa
With B5, in assay [1], the “Activity in inhibiting proliferation” value was 0.184 nM. For the same molecule, in assay [2], binding was characterised by a dissociation constant (Kd) of 0.191 nM, the koff worked out at 6.12e-05 s⁻¹ and the association rate constant (kon) worked out at 321000 M⁻¹ s⁻¹.

B6: Hu38-6 (antibody, human IgG1, kappa, L234A L235A, V domains shown)
VH: EVQLVQSGAEVKKPGASVKVSCKASGYSFTDHNMNWVRQAPGQRLEWMGVINPNYGTTTYNQKFKGRVTITVDTSASTAYMELSSLRSEDTAVYYCARRGFAYWGQGTLVTVSS
VL: DIVMTQTPLSLPVTPGEPASISCRSSKSLLYKDGKTYLNWFLQKPGQSPQLLIYLMSTRASGVPDRFSGSGSGTDLTLKISRVEAEDVGVYYCQQIAEYPFTFGSGTKLEIKR
notes: humanized mAb38, IgG1/kappa
Consider B6, for which, in assay [1], the “Activity in inhibiting proliferation” value came out at 0.136 nM. In addition, in assay [2], the Kd came out at 0.143 nM, the koff was 3.91e-05 s⁻¹ and the kon came out at 273000 M⁻¹ s⁻¹.

B7: Hu38-3 (antibody, human IgG1, kappa, L234A L235A, V domains shown)
VH: EFQLVQSGAEVKKPGASVKVSCKASGYTFTDHNMNWVRQAPGQRLEWMGVINPNYGTTTYNQKFKGRVTITVDTSASTAYMELSSLRSEDTAVYYCARRGFAYWGQGTLVTVSS
VL: DIVITQTPLSLPVTPGEPASISCRSSKSLLYKDGKTYLNWFLQRPGQSPQLLIYLMSTRASGVPDRFSGSGSGTDLTLKISRVEAEDVGVYYCQQIAEYPFTFGSGTKLEIKR
notes: humanized mAb38, IgG1/kappa
On to B7, for which the “Activity in inhibiting proliferation” value in assay [1] came to 0.174 nM. In assay [2], this molecule displayed a Kd of 0.113 nM, a koff of 4.44e-05 s⁻¹ and a kon of 393000 M⁻¹ s⁻¹.

B8: Hu38-1 (antibody, human IgG1, kappa, L234A L235A, V domains shown)
VH: EFQLVQSGAEVKKPGASVKVSCKASGYTFTDHNMNWVRQAPGQRLEWMGVINPNYGTTTYNQKFKGRVTITVDTSASTAYMELSSLRSEDTAVYYCARRGFAYWGQGTLVTVSS
VL: DIVMTQTPLSLPVTPGEPASISCRSSKSLLYKDGKTYLNWYLQKPGQSPQLLIYLMSTRASGVPDRFSGSGSGTDFTLKISRVEAEDVGVYYCQQIAEYPFTFGSGTKLEIKR
notes: humanized mAb38, IgG1/kappa
Take B8: in assay [1], the “Activity in inhibiting proliferation” value was 0.168 nM. In assay [2], this molecule had a Kd of 0.206 nM, a koff of 4.56e-05 s⁻¹ and an on-rate constant (kon) of 222000 M⁻¹ s⁻¹.

B9: Hu38-11 (antibody, human IgG1, kappa, L234A L235A, V domains shown)
VH: EFQLVQSGAEVKKPGASVKVSCKASGYSFTDHNMNWVRQAPGQRLEWMGVINPNYGTTTYNQKFKGRVTITVDQSASTAYMELSSLRSEDTAVYYCARRGFAYWGQGTLVTVSS
VL: DIVITQTPLSLPVTPGEPASISCRSSKSLLYKDGKTYLNWFLQRPGQSPQLLIYLMSTRASGVPDRFSGSGSGTDLTLKISRVEAEDVGVYYCQQIAEYPFTFGSGTKLEIKR
notes: humanized mAb38, IgG1/kappa
In the case of B9, the “Activity in inhibiting proliferation” value in assay [1] worked out at 0.168 nM. For the same molecule, in assay [2], binding was characterised by a dissociation constant (Kd) of 0.176 nM, the off-rate (koff) turned out to be 6.15e-05 s⁻¹ and the kon came to 349000 M⁻¹ s⁻¹.

B10: Hu38-14 (antibody, human IgG1, kappa, L234A L235A, V domains shown)
VH: EFQLVQSGAEVKKPGASVKVSCKASGYSFTDHNMNWVRQAPGQSLEWMGVINPNYGTTTYNQKFKGRVTITVDQSASTAYMELSSLRSEDTAVYYCARRGFAYWGQGTLVTVSS
VL: DIVMTQTPLSLPVTPGEPASISCRSSKSLLYKDGKTYLNWFLQKPGQSPQLLIYLMSTRASGVPDRFSGSGSGTDLTLKISRVEAEDVGVYYCQQIAEYPFTFGSGTKLEIKR
notes: humanized mAb38, IgG1/kappa
Regarding B10, the “Activity in inhibiting proliferation” value in assay [1] turned out to be 0.152 nM. In assay [2], this molecule registered a Kd of 0.175 nM, a koff of 5.45e-05 s⁻¹ and a kon of 312000 M⁻¹ s⁻¹.

B11: Hu38-8 (antibody, human IgG1, kappa, L234A L235A, V domains shown)
VH: EVQLVQSGAEVKKPGASVKVSCKASGYSFTDHNMNWVRQAPGQRLEWMGVINPNYGTTTYNQKFKGRVTITVDTSASTAYMELSSLRSEDTAVYYCARRGFAYWGQGTLVTVSS
VL: DIVMTQTPLSLPVTPGEPASISCRSSKSLLYKDGKTYLNWFLQKPGQSPQLLIYLMQTRASGVPDRFSGSGSGTDLTLKISRVEAEDVGVYYCQQIAEYPFTFGSGTKLEIKR
notes: humanized mAb38, IgG1/kappa
Regarding B11, in assay [1], the “Activity in inhibiting proliferation” value was 0.174 nM. In assay [2], the affinity, expressed as Kd, was 0.168 nM; the koff turned out to be 4.75e-05 s⁻¹; the kon amounted to 282000 M⁻¹ s⁻¹.

B12: risankizumab (antibody, human IgG1, kappa, L234A L235A, V domains shown)
VH: QVQLVQSGAEVKKPGSSVKVSCKASGYTFTDQTIHWMRQAPGQGLEWIGYIYPRDDSPKYNENFKGKVTITADKSTSTAYMELSSLRSEDTAVYYCAIPDRSGYAWFIYWGQGTLVTVSS
VL: DIQMTQSPSSLSASVGDRVTITCKASRDVAIAVAWYQQKPGKVPKLLIYWASTRHTGVPSRFSGSGSRTDFTLTISSLQPEDVADYFCHQYSSYPFTFGSGTKLEIKR
notes: control anti-IL-23 antibody; also called control molecule
In assay [2], B12 had a Kd of 0.0651 nM, a koff of 4.91e-05 s⁻¹ and a kon of 754000 M⁻¹ s⁻¹. Further, in assay [3], the IC50 worked out at 0.61 nM.
